Sequences and labels used below:
B1: MOR09823 (antibody, human IgG1, kappa, V domains shown)
VH: QVQLVESGGGLVQPGGSLRLSCAASGFTFSSYAMSWVRQAPGKGLEWVSVTGAVGRTYYPDSVKGRFTISRDNSKNTLYLQMNSLRAEDTAVYYCARWGDEGFDIWGQGTLVTVSS
VL: DIQMTQSPSSLSASVGDRVTITCRASQGISNWLAWYQQKPGKAPKLLIYGASSLQSGVPSRFSGSGSGTDFTLTISSLQPEDFAVYYCQQYSSFPTTFGQGTKVEIKR
notes: tested as IgG
B2: MOR09825 (antibody, human IgG1, kappa, V domains shown)
VH: QVQLVESGGGLVQPGGSLRLSCAASGFTFSSYAMSWVRQAPGKGLEWVSAINSQGKSTYYADSVKGRFTISRDNSKNTLYLQMNSLRAEDTAVYYCARWGDEGFDIWGQGTLVTVSS
VL: B1 VL
notes: tested as IgG
B3: MOR09824 (antibody, human IgG1, kappa, V domains shown)
VH: B2 VH with A50V, N52S, S53A, Q54W, K56H, S57V, T58K
VL: B1 VL
notes: tested as IgG
B4: MOR10702 (antibody, human IgG1, kappa, V domains shown)
VH: B2 VH with Q1E, V5L, A50V, N52S, S53A, Q54W, K56H, S57V, T58K
VL: B1 VL with V85T
notes: tested as IgG
B5: MOR10701 (antibody, human IgG1, kappa, V domains shown)
VH: B2 VH with Q1E, V5L, A50V, I51T, N52G, S53A, Q54V, K56R, A61P
VL: B1 VL with V85T
notes: tested as IgG
B6: MOR09974 (antibody, human IgG1, kappa, V domains shown)
VH: B2 VH with A50V, S53P, Q54S, K56N, S57F, Y59N
VL: B1 VL
notes: tested as IgG
B7: MOR12609 (antibody, human IgG1, kappa, V domains shown)
VH: B2 VH with A50V, S53G, Q54L, K56Y, S57T, Y59F
VL: B1 VL
notes: tested as IgG
B8: MOR12610 (antibody, human IgG1, kappa, V domains shown)
VH: B1 VH with V50G, A53P, V54Y, R56G
VL: B1 VL
notes: tested as IgG
B9: MOR10703 A50V_N52G (antibody, human IgG1, kappa, V domains shown)
VH: B2 VH with Q1E, V5L, A50V, N52G
VL: B1 VL with V85T
notes: Variant of MOR10703; IgG1/kappa
B10: MOR10703 N52G (antibody, human IgG1, kappa, V domains shown)
VH: B2 VH with Q1E, V5L, N52G
VL: B1 VL with V85T
notes: as for B9
B11: MOR10703 A50V_N52S (antibody, human IgG1, kappa, V domains shown)
VH: B2 VH with Q1E, V5L, A50V, N52S
VL: B1 VL with V85T
notes: as for B9
B12: MOR10703 N52S (antibody, human IgG1, kappa, V domains shown)
VH: B2 VH with Q1E, V5L, N52S
VL: B1 VL with V85T
notes: as for B9
B13: MOR10701 R55K (antibody, human IgG1, kappa, V domains shown)
VH: B2 VH with Q1E, V5L, A50V, I51T, N52G, S53A, Q54V, A61P
VL: B1 VL with V85T
notes: Variant of MOR10701; IgG1/kappa
B14: MOR10701 R55G (antibody, human IgG1, kappa, V domains shown)
VH: B2 VH with Q1E, V5L, A50V, I51T, N52G, S53A, Q54V, K56G, A61P
VL: B1 VL with V85T
notes: as for B13

Residue numbers refer to the chain shown, from its start.

One assay deals with T1, Human HER3, endogenous, on human cancer cell lines (human, UniProt P21860 20-1342).
T1 construct: Endogenous antigen on SK-Br-3, MCF7 or BT-474 cells; also called HER3 on SK-Br-3 cells; HER3 on MCF7 cells
In words: FACS titration on SK-Br-3 cells.
Consider B1, for which the EC50 (as a rule, the midpoint of the concentration-response curve) was 0.63 nM.
The molecule B2 came in with an EC50 of 0.839 nM.
The molecule B3 yielded an EC50 of 0.324 nM.

Another assay deals with T1, Human HER3, endogenous, on human cancer …. In words: cell-based or functional assay.
In the case of B1, the “BT-474 pAkt (S473) % inhibition” value came to 57%, the “SK-Br-3 pAkt (S473) % inhibition” value was 92% and the “SK-Br-3 pAkt (S473) IC50” value worked out at 55 pM.
In the case of B4, the “BT-474 pAkt (S473) % inhibition” value came to 55%.
As to B2, the “BT-474 pAkt (S473) % inhibition” value stood at 69%, the “MCF7 pAkt (S473) IC50” value amounted to 294 pM, the “SK-Br-3 pAkt (S473) % inhibition” value was determined as 91% and the “SK-Br-3 pAkt (S473) IC50” value turned out to be 156 pM.
As for B3, the “BT-474 pAkt (S473) % inhibition” value is 46%, the “SK-Br-3 pAkt (S473) % inhibition” value worked out at 93% and the “SK-Br-3 pAkt (S473) IC50” value is 62 pM.
As for B5, the “BT-474 pAkt (S473) % inhibition” value is 59%.
With B6, the “SK-Br-3 pAkt (S473) % inhibition” value is 85% and the “SK-Br-3 pAkt (S473) IC50” value was determined as 814 pM.

For the next assay the target is unchanged. In words: cell-based or functional assay. The source holds these as a separate data set.
Take B1: the “BT-474 proliferation % inhibition at 10 µg/ml IgG” value (“BT-474 proliferation % inhibition” below) was 39.8%, the “MCF7 (neuregulin stimulated) proliferation % inhibition at 10 µg/ml IgG” value came to 82% and the “SK-Br-3 proliferation % inhibition at 10 µg/ml IgG” value (“SK-Br-3 proliferation % inhibition” below) amounted to 39%.
For B4, the “BT-474 proliferation % inhibition” value was 43.8%.
With B2, the “BT-474 proliferation % inhibition” value stood at 37.2%, the “MCF7 (neuregulin stimulated) proliferation % inhibition at 10 µg/ml IgG” value came out at 63% and the “SK-Br-3 proliferation % inhibition” value is 41%.
The matching figures for B3: 36.8%, 82% and 33%.
B5: the “BT-474 proliferation % inhibition” value came to 43.6%.
Consider B6, for which the “MCF7 (neuregulin stimulated) proliferation % inhibition at 10 µg/ml IgG” value was found to be 20% and the “SK-Br-3 proliferation % inhibition” value was 35%.

The target is the same in a further assay. In words: cell-based or functional assay. The source holds these as a separate data set.
Regarding B1, the “MCF7 pHER3 % inhibition” value was 89%, the “MCF7 pHER3 IC50” value came out at 181 pM, the “SK-Br-3 pHER3 % inhibition” value worked out at 59% and the “SK-Br-3 pHER3 IC50” value was 56 pM.
With B2, the “MCF7 pHER3 % inhibition” value was 80%, the “MCF7 pHER3 IC50” value worked out at 399 pM, the “SK-Br-3 pHER3 % inhibition” value was determined as 66% and the “SK-Br-3 pHER3 IC50” value worked out at 169 pM.
As to B7, the “MCF7 pHER3 % inhibition” value worked out at 86%, the “MCF7 pHER3 IC50” value is 5 pM, the “SK-Br-3 pHER3 % inhibition” value is 71% and the “SK-Br-3 pHER3 IC50” value came to 241 pM.
The matching figures for B3: 91%, 103 pM, 64% and 110 pM.
In the case of B5, the “SK-Br-3 pHER3 % inhibition” value came out at 74% and the “SK-Br-3 pHER3 IC50” value came out at 370 pM.
As for B8, the “MCF7 pHER3 % inhibition” value worked out at 84%, the “MCF7 pHER3 IC50” value was found to be 126 pM, the “SK-Br-3 pHER3 % inhibition” value is 75% and the “SK-Br-3 pHER3 IC50” value stood at 192 pM.
B6: the “MCF7 pHER3 % inhibition” value was 69%, the “MCF7 pHER3 IC50” value was determined as 3070 pM, the “SK-Br-3 pHER3 % inhibition” value is 67% and the “SK-Br-3 pHER3 IC50” value turned out to be 1930 pM.

The target of the next assay is T2, Mu HER3 (CD33-[Murine HER3, residues 20-643]-TAG) (mouse, UniProt Q61526 20-643).
T2 construct: range 20-643; CD33 leader left out as signal; also called mu HER3-Tag; not shown: C-terminal TAG (e.g. FLAG TAG)
Briefly: solution equilibrium titration (SET), IgG.
On to B1, for which binding was put at a Kd of 0.002 nM.
Regarding B4, binding was put at a Kd of 0.005 nM.
Still for that read-out and setting: then B2, with 0.024 nM; and B3, with 0.002 nM.
Take B5: the Kd (usually the equilibrium constant for the complex coming apart) was 0.006 nM.
As for B6, the Kd turned out to be 0.12 nM.

The target in the next assay is T3, Cyno HER3 (CD33-[Cyno HER3, residues 20-643]-TAG) (cynomolgus, UniProt G7PIG5 20-643).
T3 construct: range 20-643; CD33 leader left out as signal; also called cy HER3-Tag; not shown: C-terminal TAG (e.g. FLAG TAG)
Briefly: solution equilibrium titration (SET), IgG.
In turn, B1 gave a Kd of 0.004 nM.
Consider B4, for which binding was characterised by a dissociation constant (Kd) of 0.003 nM.
Regarding B2, the affinity, expressed as Kd, was 0.056 nM.
B3 had a Kd of 0.003 nM.
For the molecule B5, binding was put at a Kd of 0.004 nM.
Turning to B6, the Kd came out at 0.2 nM.

The target in the next assay is T4, Hu HER3 (CD33-[Human HER3, residues 20-640]-TAG) (human, UniProt P21860 20-640).
T4 construct: N-terminal CD33 leader is a secretion signal and is left out; also called hu HER3-Tag; HER3-Tag; not shown: C-terminal TAG (e.g. FLAG TAG)
In words: solution equilibrium titration (SET), IgG.
For B1, the Kd stood at 0.009 nM.
For B4, binding was put at a Kd of 0.003 nM.
For B2, binding was characterised by a dissociation constant (Kd) of 0.025 nM.
Same read-out and setting: under B9 stands 0.022 nM.
Still for that read-out and setting: then B10, with 0.06 nM.
With B7, the Kd was determined as 0.01 nM.
Same read-out and setting: under B11 stands 0.016 nM; under B12, 0.057 nM; under B3, 0.003 nM.
In turn, B5 returned a Kd of 0.004 nM.
With B8, the Kd worked out at 0.037 nM.
The molecule B13 gave an equilibrium dissociation constant (Kd) of 0.011 nM.
B6 gave an equilibrium dissociation constant (Kd) of 0.35 nM.
Still for that read-out and setting: under B14 stands 0.018 nM.

For another assay, the target named is T5, Rat HER3 (CD33-[Rat HER3, residues 20-643]-TAG) (rat, UniProt Q62799 20-643).
T5 construct: range 20-643; CD33 leader left out as signal; also called ra HER3-Tag; not shown: C-terminal TAG (e.g. FLAG TAG)
Briefly: solution equilibrium titration (SET), IgG.
Molecule B1 gave a Kd of 0.011 nM.
In the case of B4, the Kd came to 0.006 nM.
The molecule B2 returned a Kd of 0.096 nM.
On to B3, for which the dissociation constant (Kd) was found to be 0.007 nM.
The molecule B5 had a Kd of 0.01 nM.

The values are drawn from patent publication US20130330324A1 (Novartis, published 2013).
